We go through six molecules from paper PMC8111768.

Test [1] addresses T1, VIC16 human IgG1 (wild type VIC16-human IgG1 REFORMab) (mouse | human). The experiment in a line: BLI.
Test [2] deals with T1, VIC16 human IgG1 (wild type VIC16-human …). The experiment in a line: SPR. Particulars: remark: other sources report otherwise.
Test [3] addresses VIC16 human IgG1 (wild type VIC16-human IgG1 REFORMab) (mouse | human). The experiment in a line: BLI. The source holds these as a separate data set.
Test [4] has as its target VIC16 REFORMab KWES (printed K236W/E333S) (mouse | human). The experiment in a line: SPR. As to conditions: remark: other sources report otherwise.
Test [5] addresses VIC16 REFORMab SDIEALGA (G236A/S239D/A330L/I332E) (mouse | human). In words: SPR. Particulars: remark: other sources report otherwise.
The target in test [6] is VIC16 REFORMab EFTEA (G236A/S267E/H268F/S324T/I332E) (mouse | human). In words: SPR. Particulars: remark: other sources report otherwise.

B1: recombinant murine FcγRIIb, P08101 30-330 (receptor)
chain: THDLPKAVVKLEPPWIQVLKEDTVTLTCEGTHNPGNSSTQWFHNGRSIRSQVQASYTFKATVNDSGEYRCQMEQTRLSDPVDLGVISDWLLLQTPQLVFLEGETITLRCHSWRNKLLNRISFFHNEKSVRYHHYSSNFSIPKANHSHSGDYYCKGSLGRTLHQSKPVTITVQGPKSSRSLP
modifications: not checked
In turn, B1 gave a Kd in test [1] of 14.9 µM.

B2: recombinant human FcγR2A, P12318 34-317 (receptor)
chain: QAAAPPKAVLKLEPPWINVLQEDSVTLTCQGARSPESDSIQWFHNGNLIPTHTQPSYRFKANNNDSGEYTCQTGQTSLSDPVHLTVLSEWLVLQTPHLEFQEGETIMLRCHSWKDKPLVKVTFFQNGKSQKFSHLDPTFSIPQANHSHSGDYHCTGNIGYTLFSSKPVTITVQVPSMGSSSPMG
modifications: not checked
B2 displayed a Kd in test [2] of 30 µM.

B3: recombinant murine FcγRI (receptor)
chain: EVVNATKAVITLQPPWVSIFQKENVTLWCEGPHLPGDSSTQWFINGTAVQISTPSYSIPEASFQDSGEYRCQIGSSMPSDPVQLQIHNDWLLLQASRRVLTEGEPLALRCHGWKNKLVYNVVFYRNGKSFQFSSDSEVAILKTNLSHSGIYHCSGTGRHRYTSAGVSITVKELFTTPVLRASVSSPFPEGSLVTLNCETNLLLQRPGLQLHFSFYVGSKILEYRNTSSEYHIARAEREDAGFYWCEVATEDSSVLKRSPELELQVLGPQSSAP
B3: in test [3], the equilibrium dissociation constant (Kd) is 0.08 µM.

B4: recombinant murine FcγRIII, P08508 31-261 (receptor)
chain: ALPKAVVKLDPPWIQVLKEDMVTLMCEGTHNPGNSSTQWFHNGRSIRSQVQASYTFKATVNDSGEYRCQMEQTRLSDPVDLGVISDWLLLQTPQRVFLEGETITLRCHSWRNKLLNRISFFHNEKSVRYHHYKSNFSIPKANHSHSGDYYCKGSLGSTQHQSKPVTITVQDPATTSSISLVWYHT
modifications: not checked
In the case of B4, the Kd in test [1] was 2.83 µM.

B5: recombinant human FcγR2B, P31994 43-310 (receptor)
chain: TPAAPPKAVLKLEPQWINVLQEDSVTLTCRGTHSPESDSIQWFHNGNLIPTHTQPSYRFKANNNDSGEYTCQTGQTSLSDPVHLTVLSEWLVLQTPHLEFQEGETIVLRCHSWKDKPLVKVTFFQNGKSKKFSRSDPNFSIPQANHSHSGDYHCTGNIGYTLYSSKPVTITVQAP
modifications: here or on the partner: soluble ectodomain by convention (UniProt topology); tag not stated
Regarding B5, the Kd in test [4] stood at 224 µM; in test [5] it was 21 µM; in test [6], 1.2 µM; in test [2], 23 µM.

B6: recombinant murine FcγRIV, A0A0B4J1G0 21-249 (receptor)
chain: GLQKAVVNLDPKWVRVLEEDSVTLRCQGTFSPEDNSIKWFHNESLIPHQDANYVIQSARVKDSGMYRCQTALSTISDPVQLEVHMGWLLLQTTKWLFQEGDPIHLRCHSWQNRPVRKVTYLQNGKGKKYFHENSELLIPKATHNDSGSYFCRGLIGHNNKSSASFRISLGDPGSPSMFPPWHQ
modifications: not checked
In test [1], B6 returned a Kd of 0.24 µM.
